The values that follow come from article PMC9608704.

Several values for one entry are separate records, joined by “and”; a condition that tells them apart may be missing. Equal values may be shown once.

This assay has as its target HLA-B*2704 heavy chain (human). The assay is described as follows: non-reducing SDS-PAGE with Western blot; cell surface proteins of C1R-B*2704 or C1R-B*2704 C67S cells biotinylated, extracted in the presence of iodoacetamide, precipitated by avidin-agarose beads, separated by non-reducing SDS-PAGE and blotted with the BH2 antibody; disulfide-linked oligomers judged by mobility.

Turning to “HLA-B*2704 heavy chain (natural protein)”, the stoichiometry N – broadly, a count of units in the complex or per binding partner – is 2 and 4.
